Each block holds one molecule with its values, some of them ahead of it.
Columns and labels:
[1] = molecular target: recombinant Pichia pastoris zeta crystallin (PpZTA1) (Pichia pastoris); experiment: SEC
[2] = molecular target: T1, PpZTA1 (zeta crystallin / quinone oxidoreductase), recombinant (Pichia pastoris, UniProt F2QTB9 1-336); experiment: EMSA
T1 sequence: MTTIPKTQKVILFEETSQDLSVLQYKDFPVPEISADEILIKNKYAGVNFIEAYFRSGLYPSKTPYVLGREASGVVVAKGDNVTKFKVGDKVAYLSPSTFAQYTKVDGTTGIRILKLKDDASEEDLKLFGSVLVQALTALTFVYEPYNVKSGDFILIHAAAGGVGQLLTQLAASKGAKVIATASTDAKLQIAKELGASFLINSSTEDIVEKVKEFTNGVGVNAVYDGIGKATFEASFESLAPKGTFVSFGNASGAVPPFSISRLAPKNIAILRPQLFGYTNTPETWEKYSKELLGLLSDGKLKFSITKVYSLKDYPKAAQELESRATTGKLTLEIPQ

- stoichiometry N [1]: 2
Molecule: recombinant Pichia pastoris zeta crystallin (PpZTA1) (natural protein)

B1: 288 (ssDNA)
DNA: ACCCGCTTTTTGGATGATTATGCATTGTCTCCACATTGTATGCTTCCAAGATTCTGGTGG
- Kd [2]: 0.9 nM

B2: 229 (ssDNA)
DNA: GAATACTGCTGATAGCCTAACGTTCATGATCAAAATTTAACTGTTCTAACCCCT
- Kd [2]: 0.2 nM

B3: 174 (ssDNA)
DNA: ACTTGACAGCAATATATAAACAGAAGGAAGCTGCCCTGTCTTAAACCTTTTTTTTTATCA
- Kd [2]: 0.1 nM
